Experimental data published in PMC2581579.

Biological target: mutant ferritin light chain p.Phe167SerfsX26 (MT-FTL) homopolymer (human) (UniProt P02792)
Experiment: SEC

stoichiometry N: 24
Substance: mutant ferritin light chain p.Phe167SerfsX26 (MT-FTL) homopolymer (from UniProt P02792 1-166) (natural protein)
